From patent publication US7897569B2, “Use of HMGB fragments as anti-inflammatory agents” (The Feinstein Institute for Medical Research, priority 2001, dated 2011)

B1: B box: Human HMGB1 mutant containing only the B box, SEQ ID NO:20 (protein)
chain: FKDPNAPKRLPSAFFLFCSEYRPKIKGEHPGLSIGDVAKKLGEMWNNTAADDKQPYEKKAAKLKEKYEKDIAAY
B2: A box: Human HMGB1 mutant containing only the A box, SEQ ID NO:21 (A box SEQ ID NO:22) (protein)
chain: MGKGDPKKPTGKMSSYAFFVQTCREEHKKKHPDASVNFSEFSKKCSERWKTMSAKEKGKFEDMAKADKARYEREMKTYIPPKGET

Experiments:
RAW 264.7 cells [1] = test: TNF mRNA expression in RAW 264.7 cells (RNase protection assay); type: cell-based, murine; settings: 10 μg/ml
Protocol: The kinetics of B box-induced TNF release was also examined. TNF release and TNF mRNA expression was measured in RAW 264.7 cells induced by B box polypeptide or GST tag polypeptide only used as a control (vector) (10 μg/ml) for 0 to 48 hours. Supernatants were analyzed for TNF protein levels by an L929 cytotoxicity assay (N=3-5) as described herein. For mRNA measurement, cells were plated in 100 mm plate and treated in Opti-MEM I medium containing B box polypeptide or the vector alone for 0, 4, 8, or 24 hours, as indicated in FIG. 2D. The vector only sample was assayed at the 4 hour time point. Cells were scraped off the plate and total RNA was isolated by RNAzol B method in accordance with the manufacturer's instructions (Tel-Test “B”, Inc., Friendswood, Tex.). TNF (287 bp) was measured by RNase protection assay (Ambion, Austin, Tex.). Equal loading and the integrity of RNA was verified by ethidium bromide staining of the RNA sample on agarose-formaldehyde gel. […] TNF mRNA expression was maximal at 4 hours and decreased at 8 and 24 hours. […] A similar study was carried out measuring TNF protein released from RAW 264.7 cells 0, 4, 8, 24, 32 or 48 hours after administration of B box or vector only (GST tag), using the L929 cytotoxicity assay described herein. […] Data are representative of three separate experiments.

RAW 264.7 cells [2] = test: IL-6 release from RAW 264.7 cells (ELISA); type: cell-based, murine; settings: B box 0-10 μg/ml, 8 hours
Protocol: To further examine the effect of HMGB1 B box on cytokine production, varying amounts of HMGB1 B box were evaluated for the effects on TNF, IL-1 B, and IL-6 production in murine macrophage-like RAW 264.7 cells. Conditioned media were harvested and measured for TNF, IL-1β and IL-6 levels. TNF levels were measured as described herein, and IL-1β and IL-6 levels were measured using the mouse IL-1β and IL-6 enzyme-linked immunosorbent assay (ELISA) kits (R&D System Inc., Minneapolis, Minn.) and N>5 for all experiments.

[3] = system: Balb/c mice subjected to CLP; test: Cecal ligation and puncture (CLP) sepsis survival; type: in vivo
Protocol: Cecal ligation and puncture (CLP) was performed as described previously (Fink and Heard, J. Surg. Res. 49:186-196, 1990; Wichmann et al., Crit. Care Med. 26:2078-2086, 1998; and Remick et al., Shock 4:89-95, 1995). Briefly, Balb/c mice were anesthetized with 75 mg/kg ketamine (Fort Dodge, Fort Dodge, Iowa) and 20 mg/kg of xylazine (Bohringer Ingelheim, St. Joseph, Mo.) intramuscularly. A midline incision was performed, and the cecum was isolated. A 6-0 prolene suture ligature was placed at a level 5.0 mm from the cecal tip away from the ileocecal valve.
The ligated cecal stump was then punctured once with a 22-gauge needle, without direct extrusion of stool. The cecum was then placed back into its normal intra-abdominal position. The abdomen was then closed with a running suture of 6-0 prolene in two layers, peritoneum and fascia separately to prevent leakage of fluid. All animals were resuscitated with a normal saline solution administered sub-cutaneously at 20 ml/kg of body weight. Each mouse received a subcutaneous injection of imipenem (0.5 mg/mouse) (Primaxin, Merck & Co., Inc., West Point, Pa.) 30 minutes after the surgery. Animals were then allowed to recuperate. Mortality was recorded for up to 1 week after the procedure; survivors were followed for 2 weeks to ensure no late mortalities had occurred.
To determine whether the HMGB1 A box can inhibit the lethality of HMGB1 during sepsis, mice were subjected to cecal perforation and treated by administration of A box beginning 24 hours after the onset of sepsis. CLP was performed on male Balb/c mice as described herein. Animals were randomly grouped, with 15-25 mice per group. The HMGB1 A box (60 or 600 μg/mouse each time) or vector (GST tag, 600 μg/mouse) alone was administered intraperitoneally twice daily for 3 days beginning 24 hours after CLP. Survival was monitored twice daily for up to 2 weeks to ensure no late death occurred. […]
Passive immunization of critically ill septic mice with anti-HMGB1 antibodies was also assessed. […] Survival was monitored for 2 weeks. […]

HMGB1 = test: A box antagonism of full length HMGB1 TNF release in RAW 264.7 macrophage cultures (ELISA); type: cell-based; settings: co-addition with HMGB1, 16 hours, polymyxin B
Protocol: Antagonism of full length HMGB1 activity by HMGB1 A box or GST tag (vector control) was also determined by measuring TNF release from RAW 264.7 macrophage cultures stimulated by co-addition of A box with full length HMGB1. RAW 264.7 macrophage cells (ATCC) were seeded into 24-well tissue culture plates and used at 90% confluence. The cells were treated with HMGB1, and/or A boxes as indicated for 16 hours in Optimum I medium (Life Technologies, Grand Island, N.Y.) in the presence of polymyxin B (100 units/ml, Sigma, St. Louis, Mo.) and supernatants were collected for TNF measurement (mouse ELISA kit from R&D System Inc, Minneapolis, Minn.). TNF-inducing activity was expressed as a percentage of the activity achieved with HMG-1 alone. FIG. 4B is a histogram of the effect of HMGB1, alone, A box alone, Vector (control) alone, HMGB1 in combination with A box, and HMGB1 in combination with vector.

Molecule	time of maximal TNF mRNA expression (RAW 264.7 cells [1]) [h]	TNF mRNA expression (RAW 264.7 cells [1]; 0-24 hours (vector at 4 hours))	IL-6 release, dose dependence (RAW 264.7 cells [2])	clinical condition and outcome ([3]; 60 μg A box, CLP)	clinical condition ([3]; 600 μg/mouse A box, CLP)	survival ([3]; ip twice daily for 3 days beginning 24 hours after CLP) [%]	effect on TNF stimulating activity of full length HMGB1 (HMGB1)
B1	4	increased significantly	increased with increased amounts of B box	–	–	–	–
B2	–	–	–	most died	significantly more alert, active, and to resume feeding behavior	68	significantly attenuated
